This data set deals with the molecule itself. As to the kind of experiment: SEC; native mass of purified VvFrsA by size exclusion chromatography, buffer and concentration not told.

B1: Fermentation-respiration switch protein (FrsA) from Vibrio vulnificus (enzyme, UniProt Q7MN61 1-415, looked up)
chain: MSEEVSKNLSETLFVKHKQAKETSALTQYMPTSQSLLDEIKEKNGFSWYRNLRRLQWVWQGVDPIEQEQVLARIASSKHSRTDEQWLDTVMGYHSGNWAYEWTRLGMEHQKRAGEMTNEAASEALFSASLCYSIAGYPHLKSDNLAIQAQVLANSAYLEAAKKSKYIIKQLEIPFEKGKITAHLHLTNTDKPHPVVIVSAGLDSLQTDMWRLFRDHLAKHDIAMLTVDMPSVGYSSKYPLTEDYSRLHQAVLNELFSIPYVDHHRVGLIGFRFGGNAMVRLSFLEQEKIKACVILGAPIHDIFASPQKLQQMPKMYLDVLASRLGKSVVDIYSLSGQMAAWSLKVQGFLSSRKTKVPILAMSLEGDPVSPYSDNQMVAFFSTYGKAKKISSKTITQGYEQSLDLAIKWLEDELLR
notes: FrsA (fermentation-respiration switch protein) of Vibrio vulnificus; theoretical mass ca. 47 kDa; Gene cloned between NdeI and XhoI of pET-28a; also called VvFrsA; recombinant VvFrsA
B1: the “stoichiometry N” value was 2.

These data come from article PMC6450606, “Purification and biochemical characterization of FrsA protein from Vibrio vulnificus as an esterase” (PLoS ONE, 2019).
